# Data from article PMC6555819, “Comprehensive study of nuclear receptor DNA binding provides a revised framework for understanding receptor specificity”.
# Target: RARg:RXRa (Homo sapiens, UniProt P13631;P19793 full;full)
# Test: no ligand; PBM; 270 nM : 90 nM RXRa; PBS pH 7.4, 2% milk, 0.02% Triton X-100, 1 mM DTT, BSA, 0.4 mg/ml salmon testes DNA
# Conditions: tags: His kept;His cleaved; copies: 1;1; label: surface-attached array probe
# Outline: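 Binding buffer was PBS pH 7.4 with 2% milk, 0.02% Triton X-100, 1 mM DTT, 0.2 mg/mL BSA and 0.4 mg/ml salmon testes DNA. In it, ligand-free nuclear receptor dimers were incubated 1 h on custom Agilent 4×180K protein-binding microarrays carrying double-stranded probes. Antibodies against each partner (one per run) detected binding, and z-scores were calculated against random background probes after regression normalization of scanned fluorescence.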
# Chain of RARg:RXRa (P13631 whole entry, chain 1 of 2): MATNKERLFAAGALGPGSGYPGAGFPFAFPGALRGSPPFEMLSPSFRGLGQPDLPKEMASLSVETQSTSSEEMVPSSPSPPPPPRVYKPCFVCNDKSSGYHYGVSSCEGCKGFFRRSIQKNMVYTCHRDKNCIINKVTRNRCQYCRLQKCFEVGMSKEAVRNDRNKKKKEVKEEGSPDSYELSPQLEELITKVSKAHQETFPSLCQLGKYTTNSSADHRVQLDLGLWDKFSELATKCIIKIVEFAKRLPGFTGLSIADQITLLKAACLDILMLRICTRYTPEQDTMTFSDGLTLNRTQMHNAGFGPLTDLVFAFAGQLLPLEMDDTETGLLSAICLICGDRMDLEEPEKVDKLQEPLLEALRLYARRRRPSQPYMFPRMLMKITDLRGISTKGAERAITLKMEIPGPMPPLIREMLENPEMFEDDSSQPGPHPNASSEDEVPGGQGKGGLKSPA
# Chain of RARg:RXRa (P19793 whole entry, chain 2 of 2): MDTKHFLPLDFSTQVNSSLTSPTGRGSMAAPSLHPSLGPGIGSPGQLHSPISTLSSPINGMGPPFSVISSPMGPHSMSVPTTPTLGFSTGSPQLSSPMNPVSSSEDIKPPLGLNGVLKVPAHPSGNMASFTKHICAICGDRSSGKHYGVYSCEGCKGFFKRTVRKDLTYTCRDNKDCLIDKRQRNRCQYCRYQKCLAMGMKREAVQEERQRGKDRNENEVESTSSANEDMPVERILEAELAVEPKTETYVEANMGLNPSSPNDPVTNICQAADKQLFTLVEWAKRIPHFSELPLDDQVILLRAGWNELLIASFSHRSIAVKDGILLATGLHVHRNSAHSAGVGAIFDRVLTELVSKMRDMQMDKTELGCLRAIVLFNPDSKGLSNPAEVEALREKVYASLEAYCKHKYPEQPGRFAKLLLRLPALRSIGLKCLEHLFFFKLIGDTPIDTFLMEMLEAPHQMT
row,Binder,binding signal
1,NRC3_wobSeed88_DR3_T25C_o1 (dsDNA) DNA 1: GCTAGCCTAGGTCATGCGGGCCAGCATAGTGTCGGCGCGATTGACAGCGTAGAATGAAGG DNA 2: CCTTCATTCTACGCTGTCAATCGCGCCGACACTATGCTGGCCCGCATGACCTAGGCTAGC,3.97 PBM z-score against 500 random probes
2,NRC3_wobSeed88_DR3_A4G_o1 (dsDNA) DNA 1: GCTGGCCTAGGTCATGCGGGCCAGTATAGTGTCGGCGCGATTGACAGCGTAGAATGAAGG DNA 2: CCTTCATTCTACGCTGTCAATCGCGCCGACACTATACTGGCCCGCATGACCTAGGCCAGC,3.93 PBM z-score against 500 random probes
3,NRC3_wobSeed82_DR3_C16G_o1 (dsDNA) DNA 1: GCATCGAAAGGTCGAGGAGGTGAGTATACACCGTTTGCGATTGACAGCGTAGAATGAAGG DNA 2: CCTTCATTCTACGCTGTCAATCGCAAACGGTGTATACTCACCTCCTCGACCTTTCGATGC,4.27 PBM z-score against 500 random probes
4,NRC3_wobSeed82_DR3_T4A_o1 (dsDNA) DNA 1: GCAACGAAAGGTCGACGAGGTGAGTATACACCGTTTGCGATTGACAGCGTAGAATGAAGG DNA 2: CCTTCATTCTACGCTGTCAATCGCAAACGGTGTATACTCACCTCGTCGACCTTTCGTTGC,4.09 PBM z-score against 500 random probes
5,NRC3_wobSeed82_DR3_T21A_o1 (dsDNA) DNA 1: GCATCGAAAGGTCGACGAGGAGAGTATACACCGTTTGCGATTGACAGCGTAGAATGAAGG DNA 2: CCTTCATTCTACGCTGTCAATCGCAAACGGTGTATACTCTCCTCGTCGACCTTTCGATGC,4.02 PBM z-score against 500 random probes
6,NRC3_wobSeed64_DR2_o1 (dsDNA) DNA 1: GCTAGCCTAGGTCATTGGGCCAGTATAGTACGCATCGCGATTGACAGCGTAGAATGAAGG DNA 2: CCTTCATTCTACGCTGTCAATCGCGATGCGTACTATACTGGCCCAATGACCTAGGCTAGC,3.78 PBM z-score against 500 random probes
7,NRC3_wobSeed64_DR2_G17T_o1 (dsDNA) DNA 1: GCTAGCCTAGGTCATTTGGCCAGTATAGTACGCATCGCGATTGACAGCGTAGAATGAAGG DNA 2: CCTTCATTCTACGCTGTCAATCGCGATGCGTACTATACTGGCCAAATGACCTAGGCTAGC,3.69 PBM z-score against 500 random probes
8,NRC3_wobSeed63_DR2_T24C_o1 (dsDNA) DNA 1: GCCGAACTAGGTCACCAGGACAGCGAAGAGGTTGGAGCGATTGACAGCGTAGAATGAAGG DNA 2: CCTTCATTCTACGCTGTCAATCGCTCCAACCTCTTCGCTGTCCTGGTGACCTAGTTCGGC,4.29 PBM z-score against 500 random probes
9,NRC3_wobSeed99_DR4_A26T_o1 (dsDNA) DNA 1: GCTCTCGGAGGACACGAAAGGTCAGTGCTCGACATCGCGATTGACAGCGTAGAATGAAGG DNA 2: CCTTCATTCTACGCTGTCAATCGCGATGTCGAGCACTGACCTTTCGTGTCCTCCGAGAGC,4.39 PBM z-score against 500 random probes
10,NRC3_wobSeed74_DR3_C13G_o1 (dsDNA) DNA 1: GCTCTAGTTGGTGACGGAGGTCACACACGACGGGTAGCGATTGACAGCGTAGAATGAAGG DNA 2: CCTTCATTCTACGCTGTCAATCGCTACCCGTCGTGTGTGACCTCCGTCACCAACTAGAGC,3.87 PBM z-score against 500 random probes
11,NRC3_wobSeed17_DR0_T6A_o1 (dsDNA) DNA 1: GCATAAGTAGGTTAGGGTCATTCAGAAAGTAGGGAAGCGATTGACAGCGTAGAATGAAGG DNA 2: CCTTCATTCTACGCTGTCAATCGCTTCCCTACTTTCTGAATGACCCTAACCTACTTATGC,4.22 PBM z-score against 500 random probes
12,NRC3_wobSeed98_DR4_G7A_o1 (dsDNA) DNA 1: GCACTAATTGGTCAGCTGAGGTCACACACAATTCGGGCGATTGACAGCGTAGAATGAAGG DNA 2: CCTTCATTCTACGCTGTCAATCGCCCGAATTGTGTGTGACCTCAGCTGACCAATTAGTGC,4.44 PBM z-score against 500 random probes
13,NRC3_wobSeed5_DR0_A15G_o1 (dsDNA) DNA 1: GCCCTTACGGGTCAGGGTTATAGCACGGGTGGTACGGCGATTGACAGCGTAGAATGAAGG DNA 2: CCTTCATTCTACGCTGTCAATCGCCGTACCACCCGTGCTATAACCCTGACCCGTAAGGGC,3.72 PBM z-score against 500 random probes
14,NRC3_wobSeed4_DR0_T25G_o1 (dsDNA) DNA 1: GCCCTACTGGGCCAAGGTCATTGAGCAGTCAAAGCAGCGATTGACAGCGTAGAATGAAGG DNA 2: CCTTCATTCTACGCTGTCAATCGCTGCTTTGACTGCTCAATGACCTTGGCCCAGTAGGGC,3.95 PBM z-score against 500 random probes
15,NRC3_wobSeed34_DR1_T4G_o1 (dsDNA) DNA 1: GCAGCGAAAGGTCGAAGGTGAGTATACCCACCCGAAGCGATTGACAGCGTAGAATGAAGG DNA 2: CCTTCATTCTACGCTGTCAATCGCTTCGGGTGGGTATACTCACCTTCGACCTTTCGCTGC,4.41 PBM z-score against 500 random probes
16,NRC3_wobSeed39_DR1_T23G_o1 (dsDNA) DNA 1: GCCGAACTAGGTCAAAGGACAGGGAAAGGCGACGTAGCGATTGACAGCGTAGAATGAAGG DNA 2: CCTTCATTCTACGCTGTCAATCGCTACGTCGCCTTTCCCTGTCCTTTGACCTAGTTCGGC,4.06 PBM z-score against 500 random probes
17,NRC3_wobSeed101_DR4_A24C_o1 (dsDNA) DNA 1: GCCCTTACGGGTCACTCCAGGTTCTAGCATCGGAGTGCGATTGACAGCGTAGAATGAAGG DNA 2: CCTTCATTCTACGCTGTCAATCGCACTCCGATGCTAGAACCTGGAGTGACCCGTAAGGGC,4.14 PBM z-score against 500 random probes
18,NRC3_wobSeed86_DR3_G15T_o1 (dsDNA) DNA 1: GCGCTGCTAGGTCATGTTGGTCAGCTAACGGGTACGGCGATTGACAGCGTAGAATGAAGG DNA 2: CCTTCATTCTACGCTGTCAATCGCCGTACCCGTTAGCTGACCAACATGACCTAGCAGCGC,3.75 PBM z-score against 500 random probes
19,NRC3_wobSeed135_DR5_G4C_o1 (dsDNA) DNA 1: GCCCAACTAGGTCATTGACAGGACAGTGAATAGTAAGCGATTGACAGCGTAGAATGAAGG DNA 2: CCTTCATTCTACGCTGTCAATCGCTTACTATTCACTGTCCTGTCAATGACCTAGTTGGGC,4.34 PBM z-score against 500 random probes
20,NRC3_wobSeed123_DR5_A17C_o1 (dsDNA) DNA 1: GCCCTCGGAGGACAACCGGAGGTCAGAGCTGCCAGAGCGATTGACAGCGTAGAATGAAGG DNA 2: CCTTCATTCTACGCTGTCAATCGCTCTGGCAGCTCTGACCTCCGGTTGTCCTCCGAGGGC,3.83 PBM z-score against 500 random probes
21,NRC3_wobSeed141_DR5_A25C_o1 (dsDNA) DNA 1: GCAGTCAAAGTTCAGGACGAGGTACCGTAAAGCACGGCGATTGACAGCGTAGAATGAAGG DNA 2: CCTTCATTCTACGCTGTCAATCGCCGTGCTTTACGGTACCTCGTCCTGAACTTTGACTGC,4.17 PBM z-score against 500 random probes
22,NRC3_wobSeed15_DR0_G16C_o1 (dsDNA) DNA 1: GCCGAACTAGGTCAACGACAGTGAATCTCCGCACGCGCGATTGACAGCGTAGAATGAAGG DNA 2: CCTTCATTCTACGCTGTCAATCGCGCGTGCGGAGATTCACTGTCGTTGACCTAGTTCGGC,3.81 PBM z-score against 500 random probes
23,NRC3_wobSeed2_DR0_C25T_o1 (dsDNA) DNA 1: GCCCTAGTTGGTCAAGGTCACACATGCTATAGGTACGCGATTGACAGCGTAGAATGAAGG DNA 2: CCTTCATTCTACGCTGTCAATCGCGTACCTATAGCATGTGTGACCTTGACCAACTAGGGC,4.31 PBM z-score against 500 random probes
24,NRC3_wobSeed87_DR3_C17G_o1 (dsDNA) DNA 1: GCCGAACTAGGTCATCGAGGACAGTGAATACATTGAGCGATTGACAGCGTAGAATGAAGG DNA 2: CCTTCATTCTACGCTGTCAATCGCTCAATGTATTCACTGTCCTCGATGACCTAGTTCGGC,4.03 PBM z-score against 500 random probes
